Values of other authors, collected in publication PMC2744109.
Where “and” joins values, the source holds several entries; their conditions need not be identical. Equal values may be shown once.

Assays:
[1] = target: Factor VIII (Homo sapiens) (UniProt P00451)
[2] = target: LRP1 CR5-CR7 (Homo sapiens) (UniProt Q07954)
[3] = target: LRP1 CR7-CR8 (Homo sapiens) (UniProt Q07954); experiment: ITC

LRP1, sequence (Q07954 20-4544): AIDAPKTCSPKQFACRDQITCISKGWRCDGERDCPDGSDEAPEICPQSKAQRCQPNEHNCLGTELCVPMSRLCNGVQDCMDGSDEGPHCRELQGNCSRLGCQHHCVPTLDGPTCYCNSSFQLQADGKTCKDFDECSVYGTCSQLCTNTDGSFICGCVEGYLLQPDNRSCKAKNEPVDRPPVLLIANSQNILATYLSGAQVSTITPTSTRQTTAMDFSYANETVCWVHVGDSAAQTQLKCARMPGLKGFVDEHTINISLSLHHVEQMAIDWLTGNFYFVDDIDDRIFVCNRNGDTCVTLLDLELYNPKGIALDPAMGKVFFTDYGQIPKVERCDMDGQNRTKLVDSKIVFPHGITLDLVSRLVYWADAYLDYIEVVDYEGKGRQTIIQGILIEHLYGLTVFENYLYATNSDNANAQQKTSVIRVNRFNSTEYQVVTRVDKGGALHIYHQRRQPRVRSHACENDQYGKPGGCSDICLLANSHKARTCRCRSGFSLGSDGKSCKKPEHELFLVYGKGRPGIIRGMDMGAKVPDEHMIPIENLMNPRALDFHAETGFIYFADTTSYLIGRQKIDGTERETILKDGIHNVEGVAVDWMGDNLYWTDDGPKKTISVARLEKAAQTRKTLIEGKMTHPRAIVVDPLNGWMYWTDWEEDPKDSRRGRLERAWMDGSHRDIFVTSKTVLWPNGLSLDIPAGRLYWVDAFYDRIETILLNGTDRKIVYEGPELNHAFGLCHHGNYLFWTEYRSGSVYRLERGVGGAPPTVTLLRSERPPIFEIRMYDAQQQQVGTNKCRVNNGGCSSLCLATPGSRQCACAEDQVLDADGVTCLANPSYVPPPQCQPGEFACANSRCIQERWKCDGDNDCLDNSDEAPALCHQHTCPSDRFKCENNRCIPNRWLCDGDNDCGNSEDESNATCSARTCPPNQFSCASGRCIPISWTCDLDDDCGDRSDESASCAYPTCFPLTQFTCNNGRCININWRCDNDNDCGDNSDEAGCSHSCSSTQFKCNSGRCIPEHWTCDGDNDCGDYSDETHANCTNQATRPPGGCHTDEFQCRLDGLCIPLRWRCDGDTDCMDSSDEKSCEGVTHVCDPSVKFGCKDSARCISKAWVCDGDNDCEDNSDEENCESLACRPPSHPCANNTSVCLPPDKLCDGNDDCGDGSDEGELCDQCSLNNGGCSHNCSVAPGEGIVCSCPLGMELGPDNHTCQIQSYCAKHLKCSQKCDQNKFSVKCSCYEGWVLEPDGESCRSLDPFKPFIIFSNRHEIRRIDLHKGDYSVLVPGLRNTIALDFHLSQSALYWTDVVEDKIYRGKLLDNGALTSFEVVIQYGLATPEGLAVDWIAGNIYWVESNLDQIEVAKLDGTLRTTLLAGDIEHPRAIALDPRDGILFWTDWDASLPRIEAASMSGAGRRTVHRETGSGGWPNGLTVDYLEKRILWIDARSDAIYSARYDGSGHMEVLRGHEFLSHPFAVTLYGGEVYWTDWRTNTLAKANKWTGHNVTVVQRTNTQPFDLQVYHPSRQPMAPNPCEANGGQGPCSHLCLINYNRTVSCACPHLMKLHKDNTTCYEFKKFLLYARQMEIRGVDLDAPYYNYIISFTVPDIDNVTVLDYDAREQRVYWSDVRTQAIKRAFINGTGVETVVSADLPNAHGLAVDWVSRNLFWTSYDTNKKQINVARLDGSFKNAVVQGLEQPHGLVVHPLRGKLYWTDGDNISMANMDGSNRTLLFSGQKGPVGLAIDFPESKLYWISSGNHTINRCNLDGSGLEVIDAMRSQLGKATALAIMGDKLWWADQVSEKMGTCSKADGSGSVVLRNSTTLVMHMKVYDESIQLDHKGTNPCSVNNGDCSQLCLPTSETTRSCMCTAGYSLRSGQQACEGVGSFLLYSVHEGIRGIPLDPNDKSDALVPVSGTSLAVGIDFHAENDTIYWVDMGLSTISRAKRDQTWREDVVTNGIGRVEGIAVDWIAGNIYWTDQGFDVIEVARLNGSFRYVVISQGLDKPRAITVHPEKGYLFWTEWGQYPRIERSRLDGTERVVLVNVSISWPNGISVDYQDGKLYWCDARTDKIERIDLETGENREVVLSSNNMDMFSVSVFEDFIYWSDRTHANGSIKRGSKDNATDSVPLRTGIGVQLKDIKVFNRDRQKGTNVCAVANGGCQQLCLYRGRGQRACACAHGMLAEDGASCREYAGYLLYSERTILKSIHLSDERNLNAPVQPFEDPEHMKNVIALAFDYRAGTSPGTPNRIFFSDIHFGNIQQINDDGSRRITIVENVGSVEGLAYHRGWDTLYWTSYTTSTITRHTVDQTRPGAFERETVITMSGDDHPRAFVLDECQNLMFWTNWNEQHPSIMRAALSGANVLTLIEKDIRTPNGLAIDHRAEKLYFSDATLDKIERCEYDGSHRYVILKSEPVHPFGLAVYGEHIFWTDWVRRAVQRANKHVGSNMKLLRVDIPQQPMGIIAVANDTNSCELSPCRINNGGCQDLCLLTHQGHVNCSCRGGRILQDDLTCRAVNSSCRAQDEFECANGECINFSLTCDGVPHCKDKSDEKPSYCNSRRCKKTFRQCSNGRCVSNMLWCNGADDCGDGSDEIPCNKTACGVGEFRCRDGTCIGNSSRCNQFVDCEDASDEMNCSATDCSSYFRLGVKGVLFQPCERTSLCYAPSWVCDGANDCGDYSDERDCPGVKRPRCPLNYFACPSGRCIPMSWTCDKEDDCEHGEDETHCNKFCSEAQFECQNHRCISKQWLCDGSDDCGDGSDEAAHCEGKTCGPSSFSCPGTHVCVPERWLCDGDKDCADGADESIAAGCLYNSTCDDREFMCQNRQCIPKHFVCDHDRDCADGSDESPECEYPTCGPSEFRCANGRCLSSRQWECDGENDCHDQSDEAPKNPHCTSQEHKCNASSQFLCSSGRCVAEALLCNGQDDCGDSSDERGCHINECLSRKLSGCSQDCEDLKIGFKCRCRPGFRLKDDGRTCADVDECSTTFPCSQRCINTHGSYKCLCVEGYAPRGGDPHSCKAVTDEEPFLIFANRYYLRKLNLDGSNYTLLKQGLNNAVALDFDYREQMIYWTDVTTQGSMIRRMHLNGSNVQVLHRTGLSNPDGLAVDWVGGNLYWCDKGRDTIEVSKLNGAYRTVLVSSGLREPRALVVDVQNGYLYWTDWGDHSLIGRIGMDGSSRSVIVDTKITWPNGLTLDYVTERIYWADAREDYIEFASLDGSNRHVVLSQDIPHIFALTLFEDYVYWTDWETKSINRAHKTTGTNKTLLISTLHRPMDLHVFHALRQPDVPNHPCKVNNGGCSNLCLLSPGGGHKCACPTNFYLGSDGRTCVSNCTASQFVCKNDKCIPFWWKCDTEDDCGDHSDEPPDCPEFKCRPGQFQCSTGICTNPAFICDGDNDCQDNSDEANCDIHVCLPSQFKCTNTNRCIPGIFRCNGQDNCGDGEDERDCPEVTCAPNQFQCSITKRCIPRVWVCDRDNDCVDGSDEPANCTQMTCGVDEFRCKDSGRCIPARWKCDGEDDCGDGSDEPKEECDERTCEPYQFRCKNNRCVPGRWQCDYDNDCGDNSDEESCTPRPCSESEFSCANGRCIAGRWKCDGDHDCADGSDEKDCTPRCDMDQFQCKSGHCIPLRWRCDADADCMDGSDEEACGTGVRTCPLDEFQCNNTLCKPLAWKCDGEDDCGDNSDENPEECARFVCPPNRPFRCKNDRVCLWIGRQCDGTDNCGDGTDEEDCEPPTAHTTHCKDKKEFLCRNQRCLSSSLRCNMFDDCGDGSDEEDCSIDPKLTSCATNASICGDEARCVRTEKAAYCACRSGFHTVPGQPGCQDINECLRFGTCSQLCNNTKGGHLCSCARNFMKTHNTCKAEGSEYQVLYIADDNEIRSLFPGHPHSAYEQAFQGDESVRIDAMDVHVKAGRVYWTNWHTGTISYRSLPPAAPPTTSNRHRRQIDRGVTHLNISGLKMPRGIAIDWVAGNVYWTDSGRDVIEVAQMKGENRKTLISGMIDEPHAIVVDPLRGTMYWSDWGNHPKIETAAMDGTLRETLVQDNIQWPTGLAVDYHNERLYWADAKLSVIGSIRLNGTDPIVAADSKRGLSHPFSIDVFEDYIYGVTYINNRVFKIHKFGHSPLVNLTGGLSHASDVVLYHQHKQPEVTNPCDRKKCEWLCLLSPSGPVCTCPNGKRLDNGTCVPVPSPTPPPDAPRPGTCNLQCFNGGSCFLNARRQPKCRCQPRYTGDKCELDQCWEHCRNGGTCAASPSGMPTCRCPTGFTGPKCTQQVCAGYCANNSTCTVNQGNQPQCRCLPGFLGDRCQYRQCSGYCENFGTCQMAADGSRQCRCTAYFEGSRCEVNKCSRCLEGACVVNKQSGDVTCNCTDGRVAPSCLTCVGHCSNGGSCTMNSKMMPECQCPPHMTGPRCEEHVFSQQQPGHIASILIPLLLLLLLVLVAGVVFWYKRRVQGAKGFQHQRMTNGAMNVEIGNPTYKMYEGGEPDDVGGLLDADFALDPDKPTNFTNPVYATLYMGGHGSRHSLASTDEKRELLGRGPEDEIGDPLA
UniProt P00451, sequence (P00451 760-1332): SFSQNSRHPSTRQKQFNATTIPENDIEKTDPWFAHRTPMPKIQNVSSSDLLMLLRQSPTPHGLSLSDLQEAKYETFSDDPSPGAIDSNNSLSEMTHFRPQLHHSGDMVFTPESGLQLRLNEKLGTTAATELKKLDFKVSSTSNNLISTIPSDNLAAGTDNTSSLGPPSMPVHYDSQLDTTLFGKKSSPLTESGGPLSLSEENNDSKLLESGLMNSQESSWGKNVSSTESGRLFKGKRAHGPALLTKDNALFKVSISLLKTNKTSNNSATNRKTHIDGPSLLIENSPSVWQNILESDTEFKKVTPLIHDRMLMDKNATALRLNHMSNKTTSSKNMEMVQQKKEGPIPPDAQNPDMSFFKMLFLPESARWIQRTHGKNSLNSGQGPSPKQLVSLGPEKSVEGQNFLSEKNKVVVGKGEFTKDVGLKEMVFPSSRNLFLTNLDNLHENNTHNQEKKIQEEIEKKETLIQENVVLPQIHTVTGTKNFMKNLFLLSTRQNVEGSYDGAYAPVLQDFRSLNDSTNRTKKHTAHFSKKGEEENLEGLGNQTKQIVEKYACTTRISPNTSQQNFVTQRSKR

Row | Kd [1] | Kd [2] | Kd [3] | Substance
1 | 0.116 µM and 0.06 µM | – | – | LRP1 (from UniProt Q07954)
2 | – | 0.0016 µM | 1 µM | RAP (from UniProt P30533)
3 | – | – | 1 µM | RAP D3 (from UniProt P30533)
